The source of these data is US20250144213A1 (UTC THERAPEUTICS SHANGHAI, published 2025).

The target in this assay is T1, CD40-Fc recombinant protein (human, UniProt P25942 21-193).
T1 construct: Soluble staining reagent; also called CD40-Fc protein; not shown: Fc part
As to the kind of experiment: FACS staining of T cells expressing the anti-CD40 scFv-CD28 fusion with CD40-Fc protein (FIG. 64).

T1 sequence (P25942 21-193 limits assumed): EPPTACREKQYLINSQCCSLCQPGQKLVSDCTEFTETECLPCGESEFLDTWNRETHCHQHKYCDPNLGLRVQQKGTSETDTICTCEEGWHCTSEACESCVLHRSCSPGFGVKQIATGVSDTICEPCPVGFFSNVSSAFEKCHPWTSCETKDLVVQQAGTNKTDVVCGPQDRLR

B1: anti-CD40 scFv 40-52 (in LACOSTIM 40-52.28) (scFv)
scFv: QSALTQPPSASGSPGQSVTISCTGTSSDVGAYNFVSWYQQHPGNAPKLIIYDVRKRPSGIPDRFSASKSGNTASLTVSGLQADDEADYYCSSYAGNNNLVFGGGTKLTVLGGGGSGGGGSGGGGSQVQLVQSGAEVKKPGSSVKVSCKASGGTFSSYAISWVRQAPGQGLEWMGMINPSGGTTSYAQKFQGRVTMTRDTSTSTVYMELSSLRPEDTAVYYCARGFRMDQWGQGTLVTVSS
notes: Tested on T cells as part of the LACOSTIM 40-52.28 (scFv fused with CD28), co-electroporated with the anti-Her2 CAR 4D5.BBZ; also called 40-52 scFv
For the molecule B1, the binding result is “binds”.

B2: anti-CD40 scFv 40-47 (in LACOSTIM 40-47.28) (scFv)
scFv: QSALTQPASVSGSPGQSITISCTGTSSDVGAYNYVSWYQQLPGKTPKLMIYDVTNRPSGVSNRFSGSKSGNTASLTISGLQAEDEAYYYCGSYTTSSTLIFGGGTELTVLGGGGSGGGGSGGGGSEVHLVESGGGLVQPGGSLRLSCAASGFTFSSNWMSWVRQAPGKGLEWVANINQDGSEKYYVDSVKGRFTISRDNAKNSLYLQLNSLRAEDTAEYYCARGGYRYAYWGQGTLVTVSS
notes: Tested on T cells as part of the LACOSTIM 40-47.28 (scFv fused with CD28), co-electroporated with the anti-Her2 CAR 4D5.BBZ; also called 40-47 scFv
As for B2, the binding result is listed as “binds”.
